One data set addresses T1, Calf pancreatic trypsin (Bos taurus, UniProt P00760).
T1 construct: (2) Calf pancreatic trypsin (Sigma); purchased Sigma; host or cells: calf pancreas
T1 sequence (P00760 24-246): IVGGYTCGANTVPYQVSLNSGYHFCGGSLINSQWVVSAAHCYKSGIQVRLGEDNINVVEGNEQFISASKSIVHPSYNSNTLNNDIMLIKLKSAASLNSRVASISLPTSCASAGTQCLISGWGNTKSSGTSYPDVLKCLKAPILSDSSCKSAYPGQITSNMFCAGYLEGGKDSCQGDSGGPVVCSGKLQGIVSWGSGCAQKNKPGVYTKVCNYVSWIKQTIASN
Put plainly: Serine protease inhibitory assay, Example 12: trypsin. The format is biochemical. The note with it: read-out: concentration of inhibitory protein which exhibits a 50% inhibition; enzyme 10^-7 M; Bz-Arg-pNA 1.0 mM; 37° C. How it is done:
Assay of serine protease inhibitory activity of active-type (Asn^55 -Ala^107) SLPI fragment polypeptide
The active-type (Asn^55 -Ala^107) SLPI fragment polypeptide obtained by refolding by the procedure shown in Example 11 as measured to determine its inhibitory activity to various serine proteases. The assay result thereof is shown as follows.
Enzyme solution: The following enzymes were dissolved in the above-mentioned buffer solutions at a concentration ten-times higher than the concentration shown in Table 4.
(2) Calf pancreatic trypsin (Sigma)
Substrate solution: For the above-mentioned enzymes (1) to (7), the following substrates (1) to (7), respectively, were dissolved in dimethyl sulfoxyde to a concentration of 10 mM to prepare stock solutions, which were then dissolved in the above-mentioned buffer solution to concentration ten-times higher than final concentrations, to prepare substrate solutions. […]
(§1) To each well of a 96-well ELISA microplate were added 140 μl of the above-mentioned buffer, 20 μl of a test solution, and 20 μl of the enzyme solution, and the mixture was stirred at 37° C. for 30 minutes. Next, 20 μl of the substrate solution was added to the well, the mixture was stirred at 37° C. for one hour to develop same, and the absorbance at 405 nm was measured.
Moreover, an inhibitory constant Ki of the present (Asn^55 -Ala^107) SLPI was calculated on the basis of the above data by a method of Dixon, M. and Webb, E. C. (1979), Enzyme, Longman or a method of Henderson, P. J. F. (1972) Biochem. J., 127, 321-333.

Data set [1] addresses T2, polymorphonuclear leucocyte elastase from human sputum (Homo sapiens, UniProt P08246).
T2 construct: Polymorphonuclear leukocyte elastase from human sputum (EPC Co; Funakoshi Yakuhin); purchased EPC Co. (via Funakoshi Yakuhin); host or cells: human sputum
T2 sequence (P08246 30-267): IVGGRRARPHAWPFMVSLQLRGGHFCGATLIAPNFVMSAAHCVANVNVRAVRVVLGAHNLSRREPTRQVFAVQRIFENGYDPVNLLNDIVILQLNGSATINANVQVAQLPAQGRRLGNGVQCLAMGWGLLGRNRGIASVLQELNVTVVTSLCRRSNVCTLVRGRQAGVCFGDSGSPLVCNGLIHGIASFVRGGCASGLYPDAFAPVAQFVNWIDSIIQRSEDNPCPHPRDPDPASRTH
As to the kind of experiment: Treatment with polymorphonuclear leucocyte elastase from human sputum (Examples 27, 30). It is filed as in vitro ADME. Particulars: 37° C.; N-terminal sequencing of SDS-PAGE bands. How it is done: Polymorphonuclear leucocyte elastase from human sputum (EPC, Funakoshi Yakuhin) and SLPI were separately dissolved in a buffer (0.1M HEPES, 0.1M NaCl, 0.1% PEG 6000, pH 7.5) and the elastase solution was added to the SLPI solution, and the mixture was incubated at 37° C. Samples were taken as time elapsed, and to each sample were added Tris-HCl buffer (pH 6.8), SDS, 2-mercaptolethanol, glycerol, and Coomassie Brilliant Blue to final concentrations of 50 mM, 4 w/v %, 2 v/v %, 12 v/v % and 0.01 w/v % respectively. The mixture was subjected to SDS-polyacrylamide gel electrophoresis using Tricine (Sigma) as a polar buffer (Schagger, H., Anal. Biochem. 166, 368, 1987). After the electrophoresis, the gel was stained with Coomassie Brilliant Blue G-250, and decoloured with 50% (v/v) methanol/10% (v/v) acetic acid. […]
(3) Next, polypeptides thus generated were electrically transferred to a membrane (Immobilon-p^SQ Millipore) using a Milli Blot-SDE apparatus (Millipore). […] After drying, relevant bands were cut out, and the peptide was cleaved from the N-terminal using an Applied Biosystems Protein-Sequencer (Applied Biosystems; 477A), and after PTH-conversion, the resulting amino acid derivatives were analyzed by a PTH-Amino acid analyzer (Applied Biosystems, 120A) to determine the N-terminal amino acid sequence. […]

The target in data set [2] is T3, polymorphonuclear leukocyte elastase from human sputum (Homo sapiens, UniProt P08246).
T3 construct: Polymorphonuclear leukocyte elastase from human sputum (EPC Co; Funakoshi Yakuhin); purchased EPC Co. (via Funakoshi Yakuhin); host or cells: human sputum
T3 sequence (P08246 30-267): T2 sequence (P08246 30-267)
As to the kind of experiment: Thermal stability (Example 14). It is filed as physicochemical. Particulars: 50 mM Tris-HCl (pH 7.8), 50° C. for 2 hours. How it is done: After a solution of an active-type (Asn^55 -Ala^107) SLPI fragment polypeptide in 50 mM Tris-HCl (pH 7.8) was treated at 50° C. for 2 hours, the inhibitory activity on polymorphonuclear leukocyte elastase from human sputum was measured.

The target in data set [3] is T2, polymorphonuclear leucocyte elastase from human sputum. As to the kind of experiment: Effect of serum albumin on elastase inhibitory activity (Example 13). It is filed as biochemical. Particulars: in the presence of 0.8% or 8% calf serum albumin. The protocol: The inhibitory activity of a active-form (Asn^55 -Ala^107) SLPI fragment polypeptide on polymorphonuclear leucocyte elastase from human sputum was measured by the same procedure as in Example 12 in the presence of 0.8% or 8% calf serum albumin.

For data set [4], the target named is T3, polymorphonuclear leukocyte elastase from human sputum. As to the kind of experiment: Serine protease inhibitory assay, Example 12: human elastase. The format is biochemical. Particulars: read-out: concentration of inhibitory protein which exhibits a 50% inhibition; enzyme 10^-9 M; MeO-Suc-Ala-Ala-Pro-Val-pNA 0.3 mM; 37° C. The protocol: as §1

“(Asn^55 -Ala^107) SLPI: polypeptide having an amino acid sequence starting with the 55th Asn and ending at the 107th Ala of SLPI (NPTRRKPGKCPVTYGQCLMLNPPNFCEMDGQCKRDLKCCMGMCGKSCVSPVKA)”: the values for the IC50 (with Calf pancreatic trypsin; in data set [4]) were 130 nM and 1 nM, respectively. The “selective cleavage sites with elastase from human sputum” value in data set [1] is recorded as “cleaved at the site between Thr^57 -Arg^58”. The “elastase inhibitory activity after heat treatment (thermal stability)” value in data set [2] is listed as “maintained at the same level”. Also, in data set [3], the “effect of calf serum albumin on elastase inhibitory activity” value is recorded as “had no effect on its activity”.

Source of the values: US5851983A, “Elastase inhibitory polypeptide and process for production thereof by recombinant gene technology” (Teijin Limited, priority 1987, dated 1998).
